According to PMC4868323, “Interaction of Toll-Like Receptors with the Molecular Chaperone Gp96 Is Essential for Its Activation of Cytotoxic T Lymphocyte Response” (PLoS ONE, 2016):
No end group written: not given here.

Tests used:
Assay in all cases: ELISA; biotinylated HBc87-95 on 96-well streptavidin plates; serial dilutions of gp96 0.03–200 μg/mL in 20 mM HEPES pH 7.2, 20 mM NaCl, 2 mM MgCl2, 100 mM KCl, 1.5 h; detected with rat anti-grp94 antibody; 300 μM radicicol as inhibitor
Details in all cases: both partners purified
[1] = target: T1, recombinant wild-type gp96 (gp96-wt), His-tagged (human, UniProt P14625 22-803, FITC label on the portion used for flow cytometry (sites not given))
T1 construct: human gp96 (GRP94), mature protein; cDNA in pET28a(+) subcloned with its His tag into pFastBac1; the 3' primer ends at ...EKDEL stop; The tag's end is read from the printed sense primer (MGSSHH..., as in pET28a); Unlabelled in the co-IP and ELISA, FITC-labelled in flow cytometry; also called FITC-gp96-wt; glucose-regulated protein 94; source: baculovirus (Bac-to-Bac, pFastBac1), purified …

[2] = target: T2, gp96 with Ala substitutions at the conserved residues in the first half of the CBD (gp96-mut), His-tagged (human, UniProt P14625 22-803, GWSGNMER (653-660) to AASAAAAA, read from the printed gp96-mut primer, FITC label on the portion used for flow cytometry (sites not given))
T2 construct: human gp96 (GRP94), mature protein, with Ala substitutions in the GWXGNMER motif of the CBD; positions follow the legend's 653-660 for the same eight residues deleted in gp96-ΔCBD; also called mutated gp96; mutant gp96; source: baculovirus (Bac-to-Bac, pFastBac1), purified (Ni-sepharose, Hitrap Q HP, Superdex 200)

[3] = target: T3, native mouse gp96 (mgp96) (mouse, UniProt P08113 22-802)
T3 construct: gp96 (GRP94, endoplasmin) purified from mouse liver; also called native gp96; source: purified from healthy mouse livers

Measured: binding result

T1 sequence (P14625 22-803): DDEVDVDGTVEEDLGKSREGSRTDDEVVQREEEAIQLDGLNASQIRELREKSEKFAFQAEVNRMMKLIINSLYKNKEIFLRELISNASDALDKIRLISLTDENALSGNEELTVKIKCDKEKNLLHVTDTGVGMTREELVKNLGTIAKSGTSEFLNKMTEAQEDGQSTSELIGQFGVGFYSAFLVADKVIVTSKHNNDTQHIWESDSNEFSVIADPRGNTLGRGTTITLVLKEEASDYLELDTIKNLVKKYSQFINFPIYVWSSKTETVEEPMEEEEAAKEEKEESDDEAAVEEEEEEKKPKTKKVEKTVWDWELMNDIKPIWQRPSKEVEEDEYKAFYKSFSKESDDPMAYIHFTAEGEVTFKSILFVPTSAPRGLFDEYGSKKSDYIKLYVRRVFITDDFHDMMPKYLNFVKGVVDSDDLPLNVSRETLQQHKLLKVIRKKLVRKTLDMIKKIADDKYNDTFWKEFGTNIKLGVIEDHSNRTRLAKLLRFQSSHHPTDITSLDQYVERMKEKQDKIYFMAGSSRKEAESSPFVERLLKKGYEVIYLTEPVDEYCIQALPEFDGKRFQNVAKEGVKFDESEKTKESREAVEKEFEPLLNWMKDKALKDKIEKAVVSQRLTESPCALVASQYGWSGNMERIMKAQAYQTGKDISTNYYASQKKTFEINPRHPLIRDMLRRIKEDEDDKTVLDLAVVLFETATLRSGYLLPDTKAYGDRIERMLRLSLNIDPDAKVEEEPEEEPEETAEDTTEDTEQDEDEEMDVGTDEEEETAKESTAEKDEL
T3 sequence (P08113 22-802): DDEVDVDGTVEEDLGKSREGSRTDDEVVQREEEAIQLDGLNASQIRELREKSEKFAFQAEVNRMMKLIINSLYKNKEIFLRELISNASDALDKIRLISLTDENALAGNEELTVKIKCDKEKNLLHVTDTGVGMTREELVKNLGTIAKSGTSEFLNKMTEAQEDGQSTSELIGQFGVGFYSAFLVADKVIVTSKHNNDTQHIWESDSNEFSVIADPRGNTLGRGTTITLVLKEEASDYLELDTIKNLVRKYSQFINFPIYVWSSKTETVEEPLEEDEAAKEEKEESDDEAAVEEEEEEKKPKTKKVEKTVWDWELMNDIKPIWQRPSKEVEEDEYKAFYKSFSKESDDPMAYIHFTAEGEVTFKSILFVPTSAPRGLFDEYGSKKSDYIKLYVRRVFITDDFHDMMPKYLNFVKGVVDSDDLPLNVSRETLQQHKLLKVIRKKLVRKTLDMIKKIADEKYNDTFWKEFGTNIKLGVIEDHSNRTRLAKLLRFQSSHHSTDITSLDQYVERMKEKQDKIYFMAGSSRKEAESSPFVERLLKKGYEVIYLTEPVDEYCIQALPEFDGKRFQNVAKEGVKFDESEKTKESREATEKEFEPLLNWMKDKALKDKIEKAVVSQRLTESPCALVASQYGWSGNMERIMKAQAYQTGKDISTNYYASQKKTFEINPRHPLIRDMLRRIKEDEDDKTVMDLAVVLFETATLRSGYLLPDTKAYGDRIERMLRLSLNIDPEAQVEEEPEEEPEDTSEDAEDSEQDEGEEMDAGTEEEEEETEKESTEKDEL
T2 sequence (P14625 other isoform, or with tags, fused parts or gaps with the stated changes): as the sequence (P14625 22-803) above, with G632A, W633A, G635A, N636A, M637A, E638A, R639A counted along it

B1: biotinylated peptide HBc87-95 (peptide)
peptide: SYVNTNMGL
modifications: also: biotinylated, position not given here
notes: also called HBcAg_(87–95); source: synthetic peptide (GL Biochem Ltd.)
binds: all assays above
